According to doi:10.1101/609255:

Target: Light-Harvesting Complex II (LHCII) (spinach)
Test: native gel or EMSA

Light-Harvesting Complex II (LHCII)
stoichiometry N: 3
